Test [1] concerns the target T1, human BMP6 (R&D Systems, Cat #507-BP) (human, UniProt P22004 375-513, limits assumed).
T1 construct: Bought protein (R&D Systems 507-BP or 507-BP/CF); also called hBMP6; hBMP-6
T1 sequence: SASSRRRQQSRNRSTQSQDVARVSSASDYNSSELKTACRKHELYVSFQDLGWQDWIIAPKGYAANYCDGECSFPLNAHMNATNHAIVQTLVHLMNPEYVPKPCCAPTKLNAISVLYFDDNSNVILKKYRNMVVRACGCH
Kind of test: SPR (MASS-1), mAb captured on anti-human Fc, hBMP6 in solution, 37 C; no dissociation observed, kd manually fixed at 1.00E-05; 37 C; no dissociation observed, kd fixed at 1.00E-05. The procedure:
(§1) Equilibrium dissociation constants (KD values) for human and mouse BMP6 binding to purified anti-BMP6 monoclonal antibodies of this invention were determined using a real-time surface plasmon resonance (SPR) biosensor instrument, MASS-1. All binding studies were performed in 10 mM HEPES, 150 mM NaCl, 3 mM EDTA, 1 μg/mL Heparin, and 0.05% v/v Surfactant Tween-20, pH 7.4 (HBS-EHT) running buffer at 25° C. and 37° C. The HCA sensor surface was first derivatized by amine coupling the monoclonal mouse anti-human Fc antibody (GE, #BR100839) and anti-BMP6 monoclonal antibodies were individually captured. Different concentrations of human BMP6 reagents (hBMP6; R&D Systems, Cat #507-BP; 60 nM-0.94 nM; 4-fold serial dilution) or mouse BMP6 (mBMP6; R&D Systems, Cat #6325-BM; 60 nM and 15 nM) prepared in HBS-EHT running buffer were injected over the captured anti-BMP6 monoclonal antibody for 4 minutes at a flow rate of 30 μL/minute, while the dissociation of BMP6 reagent bound to captured anti-BMP6 monoclonal antibody was monitored for 10 minutes in HBS-EHT running buffer. Kinetic association (kₐ) and dissociation (kd) rate constants were determined by fitting the real-time binding sensorgrams to a 1:1 binding model with mass transport limitation using Scrubber 2.0c software. […]

The target of test [2] is T1, human BMP6 (R&D Systems, Cat #507-BP). Kind of test: SPR (MASS-1), mAb captured on anti-human Fc, hBMP6 in solution, 37 C; calculated with kd fixed at 1.00E-05. The procedure: as §1
Test [3] has the same target. Kind of test: competition ELISA, antibody titrated against 2.5 nM biot-hBMP6, plate-coated hHJV-hFc as competitor; value below the lower limit of quantitation of 1.25E-09 M. The procedure:
These antibody-protein complexes, after a one-hour incubation, were transferred to the microtiter plate coated with hHJV-hFc or hActR2a-hFc. After two hours of incubation at room temperature, the wells were washed, and plate-bound biot-BMP6 was detected with neutravidin conjugated with horseradish peroxidase (HRP) (Thermo Scientific, Cat #31030). The plates were then developed using TMB substrate solution (BD Biosciences, Cat #555214) according to manufacturer's recommendation and absorbance at 450 nm was measured on a Victor X5 plate reader.
Data analysis was performed using a sigmoidal dose-response model within Prism™ software (GraphPad). […] Percent blockade at indicated concentration of the antibody tested was calculated as an indicator of the ability of the antibodies to block the binding of 2.5 nM or 1.5 nM of biot-BMP6 to hHJV-hFc or hActR2a-hFc on the plate, respectively. In the calculation, binding signal of the sample of the constant biot-BMP6 without the presence of the antibody for each assay was referenced as 100% binding or 0% blocking; and the baseline signal of the sample of buffer only without the presence of biot-BMP6 was referenced as 0% binding or 100% blocking.
The isotype control antibody blocked <30% at concentrations up to 300 nM antibody, as expected.
(In an ELISA, binding on a coated surface is turned into a signal by an enzyme label.)

A further test has as its target T2, Human BMP5 (human, UniProt P22003 317-454, limits assumed).
T2 sequence (looked up): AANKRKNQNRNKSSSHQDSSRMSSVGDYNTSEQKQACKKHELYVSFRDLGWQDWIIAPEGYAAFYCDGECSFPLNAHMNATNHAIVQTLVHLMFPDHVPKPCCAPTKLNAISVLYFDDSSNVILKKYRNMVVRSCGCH
Kind of test: BLI (Octet HTX), mAb captured on Protein A sensor, 100 nM ligand, 25 C. Here is the method:
(§2) Binding cross-reactivity of anti-BMP6 monoclonal antibodies to BMP6 family members, (Human: BMP6, BMP5, BMP7, BMP8A, BMP9, BMP10, BMP12, BMP14, BMP3b, Activin A, and GDF3 and mouse: BMP6 and GDF6) was determined using a real-time Bio-Layer Interferometry (BLI) biosensor using Octet HTX instrument. All binding studies were performed in 10 mM HEPES, 150 mM NaCl, 3 mM EDTA, 1 mg/mL BSA, 50 μg/mL Heparin, and 0.05% v/v Surfactant Tween-20, pH 7.4 (HBS-EBHT) buffer at 25° C. with the plate shaking at a speed of 1000 rpm. To assess binding cross-reactivity, Protein A coated Octet biosensor (Pall ForteBio Corp., #18-5010) was first dipped in wells containing […] of anti-BMP6 monoclonal antibodies for 4 minutes followed by submerging in wells containing 100 nM of different BMP6 family members for 4 minutes. The biosensors were washed in HBS-EBHT buffer in between every step of the experiment. At the end of each cycle, the Protein A biosensor was regenerated using three alternate 5 second dips in 10 mM Glycine pH 2.0 and 10 second dip HBS-EBHT buffer. The real-time binding response was monitored during the course of the experiment and the binding response at the end of every step was recorded and tabulated as shown in Tables 8A and 8B.

In another test the target is T3, Human GDF3 (human, UniProt Q9NR23 251-364).
T3 sequence (looked up): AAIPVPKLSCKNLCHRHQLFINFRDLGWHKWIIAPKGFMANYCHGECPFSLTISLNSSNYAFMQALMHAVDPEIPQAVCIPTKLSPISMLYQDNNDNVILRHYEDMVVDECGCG
The test is described as above. Here is the method: as §2

A value given as a limit tells only on which side of the number the result lay.

B1: H4H17871P (antibody, V domains shown)
VH: EVQLVESGGGLVQPGGSLRLSCAASGFTFNNYAMSWVRQAPGKGLEWVSAISGSGDSTYYADSVKGRFTISRDNSKNTLYLQMNSLRAEDTAVYYCAKRSRSSPFDPWGQGTLVTVSS
VL: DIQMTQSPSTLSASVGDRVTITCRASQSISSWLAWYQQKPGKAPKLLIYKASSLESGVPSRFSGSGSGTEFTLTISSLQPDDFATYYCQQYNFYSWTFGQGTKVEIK
notes: Fully human antibody; also called anti-BMP6 monoclonal antibody; BMP6 antibody of the invention
Consider B1, for which the dissociation rate constant (koff) in test [1] is not above 1e-05 s⁻¹. Moreover, in test [2], the dissociation constant (Kd) is not above 0.24 nM and the t1/2 was not below 19.2 h.

B2: H4H17855P (antibody, V domains shown)
VH: EVQLVESGGGLVQPGGSLRLSCAASGFTFSSYAMSWVRQAPGKGLEWVSAISGSGGRTYYTDSVKGRFTMSRDNSKNTLYLQMNSLRAEDTAVYYCAKRPYNSPFDPWGQGTLVTVSS
VL: EIVLTQSPGTLSLSPGEGATLSCRASQSVSSSYLAWYQQKPGQAPRLLIYGASSRATGIPDRFSGSGSGTDFTLTISRLEPEDFVVYYCQHFGGTPFTFGGGTKVEIK
notes: as for B1
B2: in test [3], the IC50 was 0.522 nM. In addition, the binding response turned out to be 0.01 nm with Human BMP5 and 0.03 nm with Human GDF3.

Usually koff stands for the first-order rate constant of dissociation. By Kd is commonly meant the constant that tells how readily two partners part at equilibrium. The term IC50 denotes the concentration that gives 50% inhibition. Lower therefore signals higher potency.

Source of the values: patent US20220251184A1 (Regeneron, published 2022).
